What was measured:
M1R L131A = M1R L131A (UniProt P11229)
M2R L129A = M2R L129A (UniProt P08172)
Sequence of UniProt P08172 (P08172 whole entry L129A): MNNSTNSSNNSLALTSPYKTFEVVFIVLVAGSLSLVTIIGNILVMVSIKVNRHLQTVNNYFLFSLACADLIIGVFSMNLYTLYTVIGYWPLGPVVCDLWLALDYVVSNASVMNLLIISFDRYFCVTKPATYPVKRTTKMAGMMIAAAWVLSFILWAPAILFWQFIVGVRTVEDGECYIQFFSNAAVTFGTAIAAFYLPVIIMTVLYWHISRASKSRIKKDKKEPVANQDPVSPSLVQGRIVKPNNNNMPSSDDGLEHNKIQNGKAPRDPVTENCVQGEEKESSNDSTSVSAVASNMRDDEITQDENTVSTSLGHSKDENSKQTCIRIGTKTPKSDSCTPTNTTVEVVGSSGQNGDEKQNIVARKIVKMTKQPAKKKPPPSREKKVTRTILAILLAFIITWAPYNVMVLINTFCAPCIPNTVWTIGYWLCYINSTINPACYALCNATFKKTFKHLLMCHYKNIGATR

| coupling with G11, percent of wild type (fig. S10) (% of wild type) (M1R L131A) | coupling to GoA, percent of wild type (fig. S10) (% of wild type) (M2R L129A) | Substance |
| --- | --- | --- |
| 17 |  | G_(11iN) heterotrimer (Gα_(11iN), Gβ1, Gγ2) (from UniProt P63096 1-29; P29992 36-359; P62873 2-340; P59768 1-71) (complex) |
|  | 49 | G_(oAiN) heterotrimer (Gα_(oAiN), Gβ1, Gγ2) (from UniProt P09471 1-354; P62873 2-340; P59768 1-71) (complex) |

From article PMC7034192
